{"source": "paper PMC10256198", "about": "(European Heart Journal, 2023)", "origin": "cited, not measured here", "conditions": "stated in the introduction, no reference given", "data": [{"substance": "Ghrelin: endogenous 28 amino acid anabolic peptide hormone, activated by acylation of amino-acid 3 (GSSFLSPEHQRVQQRKESKKPPAKLQPR; Ghrelin-28; UniProt Q9UBU3 24-51, looked up)", "values": [{"measurement": "plasma half time", "result": "24 to 30", "unit": "min"}]}]}
